From the supplement of paper PMC9170038

System: K4 kissing-loop RNA reporter
Experiment: apparent KD of K4 kissing-loop reporter; higher = weaker reporter binding
Settings: Eterna round: R107
Procedure: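 RNA-MaP round R107: designed RNA switches with theophylline, tryptophan, arginine or FMN aptamers are transcribed on-chip within common flanks. They are titrated with a labelled K4 kissing-loop RNA reporter in RNA-MaP buffer (100 mM Tris pH 7.5, 80 mM KCl, 4 mM MgCl2), without ligand or with the indicated ligand. Median apparent KD per design.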

[1] = input ligand: theophylline 20 uM
[2] = input ligand: tryptophan 2.4 mM
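Note: bound reporter read as fluorescence of individual clusters on recovered sequencing chips by microscopy, with normalized cluster intensities fitted with a binding model.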

Row | Sequence | apparent KD of K4 kissing-loop reporter (input ligand: FMN 200 uM) [nM] | apparent KD of K4 kissing-loop reporter (input ligand: arginine 13.2 mM) [nM] | apparent KD of K4 kissing-loop reporter (input ligand: none) [nM] | apparent KD of K4 kissing-loop reporter [1] [nM] | apparent KD of K4 kissing-loop reporter [2] [nM]
1 | AUUUAUUACAGAAGGAGCGUGUAUUUAUAAUCAUUUAUCUUAGCGAGUGAUGUUCGCUUUACACAGGUAGGUCGCUGUUUAUUUA [JR_Nu_ExcArginiB_Sub027] | 110 | 128 | 120 | 133 | 90.2
2 | AAAUAAAGCAGUCACCCAGUGAUGUUGGAAGGAGCGUGCGAAAGCACAGGUAGGUCGCCAAAACCUAAUACUGGCUGCUAAAUAA [#03 K4 Arginine A Exclusion] | 242 | 357 | 285 | 307 | 177
3 | UUUGUAUCGGGAAGGAGCGUGAAUGAUAAUGAAUAUAGUGAUGUUAUAUAUAAGAACGAAUCACAGGUAGGUCGCCCGGAUGAGU [SSArgB.N] | 548 | 387 | 486 | 548 | 460
4 | GAUUAUUAUUCUAAAUAACAUUAUUCAGAAGGAGCGUGUUUGUACACAGGUAGGUCGCUGAAUGCUAAGCCAGUGAUGUUGGUAA [JR_SSArginiA_Sub001] | 154 | 206 | 203 | 191 | 128
5 | UCACUACACUGAAGGAGCGUGAGGAGACUAGUGAUGUUGGUCAGAUUCUAUGAUCGUAACUCACAGGUAGGUCGCAGUGUAGUGU [Arg B SS t7] | 514 | 341 | 518 | 378 | 476
6 | GUAGCCCUAUGUGAUACCAGACGGUAUAAAAUCCUGGCGGCCAGUGAUGUUGGCCAUCGCGUCCCUUGGCAGCACCAAGGCUGUA [theeternabot_sameState_KL_Theo_B_18] | 122 | 143 | 142 | 118 | 114
7 | ACUGGGUUGACGAAAGUCAACAAAAGAGAAGGAGCGCACGAAAGUGCAGGUAGGUCGCUCAUCCAGUGAUGUUGGAUCAUCCAGA [#SwitchBubble 17 #K4Late] | 444 | 679 | 626 | 392 | 305
8 | AUCAUAUCUAGUCAGCCCAGUGAUGUUGGGCGAGGACCGGUACGGCCGCCACUCGCUUCGUUGCGGUGGCUGGCGUUACGACAAA [Inveusma] | 130 | 142 | 150 | 142 | 137
9 | ACGCUGGUGAAUAACACUAGCGAAUAAUUCCGAGGACCGGUACGGCCGCCACUCGGCUAACUGCGAGUGAUGUUCGAUAAUAAAA [Mat - Mod of OpenEnded 3 - D10] | 78.5 | 158 | 103 | 156 | 57.5
10 | GGAUCCACCAGUGAUGUUGGAGAAAACUCUAAGGAUAUGACGAAAGUCAGAAGGUGGUAGACUGGGCAAAGUCCGGUCGGAUCCA [FmnA10 U30+G66] | 490 | 120 | 378 | 873 | 660
11 | UGACUUGCCUGAGGAUAUCUAGGAUAUCCAUAAAAGAAAAUAAUAAUCCAGUGAUGUUGGAGAAGGAGAGAAGGCAGGUAAGUCU [KL-XFMN-B17 #DoubleAptamer #SwitchBubble] | 176 | 114 | 119 | 112 | 119
12 | CGAGUGAUGUUCGUUCGUAUAUUUGGGUGACAGGAUAUGCGGAAACGCAGAAGGGUCGCCUUCGGGUUACCCGAAUUGGCGUUUU [FMN A Model 2] | 444 | 402 | 546 | 461 | 455
13 | UGUAUGGACUGAAGGAGCGCUAGGUAUGUGAGUGAUGUUCAUAUAAAUGUAUAAAGGGUUUGGCAGGUAGGUCGCAGUCCAUACU [KL-SSArg B6] | 213 | 122 | 227 | 154 | 188
14 | GGGACGCUAGCUCGAAUGUAGUGAUUUGAUACCAGCCUGUCACUUGGCCCUUGGCAGCAAAGCAGAGUGAUGUUCUGACCAACCU [theeternabot_sameState_KL_Theo_A_47] | 189 | 298 | 235 | 346 | 144
15 | GCGCGUCAUGUCAGCGGUGACACUGUCGAUACCAGUGCCGAAAGGCGCCCUUGGCAGCGACGUGCUGGAGUGAUGUUCCAGCGUU [#2 Exclusion - Theophylline A Attempt #30 (HarryS)] | 154 | 135 | 151 | 149 | 145
16 | GGAUAGGACAGAGGAUAUCCUGAGUCUACAAAGUAGGCUCAUAAAGGAUGAAUCCUAGUGAUGUUAGGAGAAGGCUGUCCUAUCG [FmnBX 16 - #SwitchBubble #StaticStem #Palindromic] | 110 | 84.6 | 76.3 | 79.5 | 88.7
17 | AACAGCAAUGCGGCCGCCACUUCGAGGUCAGUGAUGUUGACAGAAUUAAAUAAAGAUCCCAAGAGGAGGACCGGGCAGUGCUGUU [whbob_SS_Tryp_B_t24] | 534 | 417 | 674 | 527 | 416
18 | GCCAGUGAUGUUGGCGAACCAACGCAUGCAGAGGAUAUUCGUUCGGGAAGAAGGCUGCAGCGUUCUCUCCCGCAGUGAUGUUGCG [Same State FMN A GF 25] | 164 | 141 | 169 | 153 | 150
19 | UUGGAUUGAUGAGAGUUGAUUUGGUAGGAAGGAGCGGCCGAAAGGCCAGGUAGGUCGCCUAUUGACAGUGAUGUUGUUAUAUGGU [#16] | 215 | 228 | 237 | 489 | 226
20 | AGAUCUGUAACAGAUACCAGAGGACGAUGAUCGAACAGUGAUGUUAUCUGUUAGUCGUCGCUCCCUUGGCAGCUGUUACAGAUCA [Omei KL Theo B SS B v4] | 106 | 46.2 | 55.5 | 72.1 | 84.9
21 | UAUAGAGUGACGGCCGCCACUAUUGUGAUUUAAUUGUUAGAGUGAUGUUUUGAUGUUUGAUUUUGUAGGACCGGGUUAUAUGUUA [wwwzmullin] | 1090 | 720 | 890 | 795 | 718

Row | Sequence | apparent KD of K4 kissing-loop reporter (input ligand: FMN 200 uM) [nM] | apparent KD of K4 kissing-loop reporter (input ligand: arginine 13.2 mM) [nM] | apparent KD of K4 kissing-loop reporter (input ligand: none) [nM] | apparent KD of K4 kissing-loop reporter [1] [nM] | apparent KD of K4 kissing-loop reporter [2] [nM]
22 | AUUAAUUUCAGAGGAUAUCGUGAUUUUGUUUAAUUUAUUCAUUUGUGCAGUGAUGUUGCUAAUAUUCGAGAAGGCUGAUUUAUAA [whbob_Ex_FMNB__2th225] | 161 | 134 | 63.3 | 132 | 53.3
23 | CAAGGGCAAGUCGAUACCAGAGACACAUACCCGCAGUGAUGUUGCAGGAAACAGUUACUUCUCCCUUGGCAGCGAAUGCGACUUC [theeternabot_sameState_KL_Theo_B_45] | 348 | 313 | 344 | 309 | 332
24 | AGUGGACGUGUCCGGAGUGAUGUUCAGGAUACCAGACACGAAAGUGUCCCUUGGCAGCCGGAGUGAUGUUCCGGCGUUCACUAAA [Omei KL Theo A Exc B v4] | 459 | 248 | 360 | 419 | 321
25 | UUAGAGAUCUCAGGAUAUGAGUGAUGUUGGUAUCAAGAUCUGAGAUAGAAUUCUAUCUCAGAUCAAUCAGAAGGGAGAUCUCAUU [AK2.1 Exc FMN B] | 376 | 424 | 534 | 583 | 550
26 | AGUAUGGCAACAUUGCAAGUAGCCGUACCACGAGGACCGGUACGGCCGCCACUCGAUAACUUGCAGUGAUGUUGCAAGUAAGAAU [(T)''-(K)'-(T)'-(T1)-(T2)-(K1)-(K2)_Design4] | 193 | 206 | 227 | 268 | 199
27 | CUAGGCAACACAGGAUAUGUCCGAGUGAUGUUCGAGCCUUUCCAUUGACGAAAUUAAUGGUGGGUGACAGAAGGGUGAGUGCUGA [Xezaqu] | 354 | 577 | 620 | 585 | 432
28 | UGACUGGACUGAAGGAGCGCUAAAACUCCUAGUGAUGUUGGGAAAUAAGAGACAAAGUCUCAGCAGGUAGGUCGCAGUCUAGUCU [ArgBS 24 #SwitchBubble #StaticStem] | 481 | 462 | 503 | 657 | 526
29 | UGGCGGCAAGGGUUAUUGGAAAGUAUUCGACGAGGACCGGUACGGCCGCCACUCGAACACCAGUGAUGUUGGUCUGGCUUAAGCC [Exclusion Tryptophan A GF 21] | 276 | 245 | 285 | 275 | 279
30 | UAACUGAAGUGAUGUUUCAGUUCGUCGGAUACCAGUGCCGAUCAUCACCCUUGGCAGCCGUAAUAUUACUUAACAAUGACAGGUU [theeternabot_exclusion_KL_Theo_A_7] | 122 | 107 | 118 | 119 | 108
31 | CCUAUCUCAUACGAUACCAGUGAUUAACCAGUGAUGUUGGAAUAACCAAGGAAUAUUUAUCACCCUUGGCAGCGUAUGGGAUAGG [Ex Theophylline B K4 28] | 99.8 | 54.4 | 83.3 | 115 | 69.4
32 | GGGAGUAGUGCGGCCGCCACUGAGAAAGAAGAAGAAUAUAGUGAUGUUAUAUAGGAAAGGAAGAACAGGACCGGGCAUUAGAUUU [SSTRyptB.F] | 232 | 220 | 251 | 232 | 180
33 | AAAGUUGAUGAGUUGGGUAUGUGUUCCGAAGGAGCGAGAAUUAUCUCAGGUAGGUCGCGGAACAUGAGUGAUGUUCAUGUAUAAA [KL-XArg-A7 #analogue] | 345 | 436 | 365 | 423 | 340
34 | GGGAAGAAGGCGGCCGCCACUGCAGAAGAGACAGAGAGAGAAGAAGAGGAGUGAUGUUCCAAGAACAGGACCGGGCCAAGAAGGG [whbob_SS_Tryp_B_t28] | 167 | 84.2 | 102 | 146 | 129
35 | GGUCGAGUGAUGUUCGAUGUUAUGCAUUCAGAGGAUAUAGGAUUGGCUAGAAGGCUGAAUCGAUCUUCGAGUGAUGUUCGAGGAU [Same State FMN A GF 8] | 116 | 112 | 117 | 101 | 128
36 | GUUACGCAUGGAAGGAGCGCUCUCCGGCUUAAUAACACAGUGAUGUUGUGAAUUUGCCGAAAGCAGGUAGGUCGCCAUGUGUAAC [Ex Arginine B K4 10] | 474 | 359 | 453 | 435 | 413
37 | GCAGUGAUGUUGCACGAGUAGGGUAGAGUACGAGGACCGGUACGGCCGCCACUCGUACGGAACUCGCUAAUUUAUGGAAUGGUGA [I] | 465 | 590 | 752 | 761 | 497
38 | GAAAGAAAGAAUGAUACCAGACACCCGAGUGAUGUUCGGAGCAGAGUGAUGUUCUUAUAAGUCCCUUGGCAGCAUAAAAGAAAAG [whbob_SS_Theo_B_sa82] | 192 | 171 | 196 | 186 | 153
39 | UUUUUAAUCGCAGAUACCAGUCCAGAAUGAAUACUAUAGUGAUGUUAUAAUAAAGGGAAGGACCCUUGGCAGCUGUAAUAUAUUU [AstrosSsTheB#5] | 386 | 315 | 416 | 318 | 298
40 | UGACUACAAAGGAAAUAAUCCUAGUGAUGUUAGGAUAUGCUGAUAAGCAGAAGGAACUGAGAUCGAAAGAUCUCAAAUGUAGUCU [FmnAX 26 Mat Inspired #SwitchBubble #StaticStem #K4Early] | 131 | 90.1 | 84.9 | 96.6 | 88.2
41 | GCCUAGUGAUGUUGGGUAAUUUAAACCGGGCGAGGACCGGUACGGCCGCCACUCGGAAACACAACAAAAUUUAAUUUAAUUUAAA [Exclusion - Trytophan A] | 176 | 138 | 174 | 204 | 152
42 | AAACAAGAUGCAGGAUAUACGGACCCAGUGAUGUUGGGUAGAAUUGUCCCGGCAAUCCUUGUGGCAGUAGAAGGGCAAUAAAAGA [Gexeraora] | 271 | 134 | 169 | 144 | 151
